Changes are numbered by the printed parent chain. In names and notes the source's numbering stands. Several values for one entry are separate records, joined by “and”; a condition that tells them apart may be missing. Equal entries are not always repeated.

The text below walks through data of US20260242497A1 (VIAL HEALTH TECHNOLOGY, published 2026).

T1: TL1A (antigen of Examples 1 and 2, species not stated) (UniProt O95150 57-251, limits assumed)
T1 construct: also called recombinant purified antigen; TNFSF15
T1 sequence (looked up): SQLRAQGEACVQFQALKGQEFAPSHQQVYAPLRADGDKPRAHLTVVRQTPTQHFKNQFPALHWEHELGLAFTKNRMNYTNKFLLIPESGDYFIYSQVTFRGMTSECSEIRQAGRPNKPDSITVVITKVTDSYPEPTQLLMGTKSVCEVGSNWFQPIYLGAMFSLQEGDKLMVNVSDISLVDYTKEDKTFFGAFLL

T2: biotinylated recombinant human TL1A (human, UniProt O95150 57-251, limits assumed, biotinylated (sites not given))
T2 sequence: T1 sequence (looked up)

B1: AB_TL1A_02_004 (antibody, human IgG1, kappa)
heavy: QVQLVQSGAEVKKPGASVKVSCKASGYDFTYYGISWVRQAPGQGLEWMGWISPYNGNTHYAQKLQGRVTMTTDTSTRTAYMELRSLRSDDTAVYYCARENYYGSGAYRGGMDVWGQGTTVTVSSASTKGPSVFPLAPSSKSTSGGTAALGCLVKDYFPEPVTVSWNSGALTSGVHTFPAVLQSSGLYSLSSVVTVPSSSLGTQTYICNVNHKPSNTKVDKKVEPKSCDKTHTCPPCPAPEAAGAPSVFLFPPKPKDTLMISRTPEVTCVVVDVSHEDPEVKFNWYVDGVEVHNAKTKPREEQYNSTYRVVSVLTVLHQDWLNGKEYKCKVSNKALPAPIEKTISKAKGQPREPQVYTLPPSREEMTKNQVSLTCLVKGFYPSDIAVEWESNGQPENNYKTTPPVLDSDGSFFLYSKLTVDKSRWQQGNVFSCSVMHEALHNHYTQKSLSLSPG
light: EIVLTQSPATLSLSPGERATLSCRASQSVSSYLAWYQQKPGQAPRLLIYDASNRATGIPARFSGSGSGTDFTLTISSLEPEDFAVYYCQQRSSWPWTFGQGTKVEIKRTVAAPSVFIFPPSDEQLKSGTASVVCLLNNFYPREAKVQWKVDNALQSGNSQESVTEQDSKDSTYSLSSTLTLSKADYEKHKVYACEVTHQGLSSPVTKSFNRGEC
B2: AB_IL13_02_001_HL9 (antibody, human IgG1, kappa, L234A L235A)
heavy: EVQLQESGPGLVKPSETLSLTCTVSGFSLNAYSVNWIRQPPGKGLEWLGMIWGDGKIVYNSALKSRLTISKDSSKNQVSLKLSSVTAADTAVYYCAGDGYYPYFMDNWGQGTTVTVSSASTKGPSVFPLAPSSKSTSGGTAALGCLVKDYFPEPVTVSWNSGALTSGVHTFPAVLQSSGLYSLSSVVTVPSSSLGTQTYICNVNHKPSNTKVDKKVEPKSCDKTHTCPPCPAPEAAGGPSVFLFPPKPKDTLMISRTPEVTCVVVDVSHEDPEVKFNWYVDGVEVHNAKTKPREEQYNSTYRVVSVLTVLHRDWLNGKEYKCKVSNKALPAPIEKTISKAKGQPREPQVYTLPPSRDELTKNQVSLTCLVKGFYPSDIAVEWESNGQPENNYKTTPPVLDSDGSFFLYSKLTVDKSRWQQGNVFSCSVLHEALKFHYTQKSLSLSPG
light: DIQLTQSPSSLSASVGDRVTITCRASKSVDSYGNSFMHWYQQKPGKAPKLLIYLASNLESGVPSRFSGSGSGTDFTLTISSLQPEDFATYYCQQNNEDPRTFGGGTKVEIKRTVAAPSVFIFPPSDEQLKSGTASVVCLLNNFYPREAKVQWKVDNALQSGNSQESVTEQDSKDSTYSLSSTLTLSKADYEKHKVYACEVTHQGLSSPVTKSFNRGEC
B3: AB_IL13_02_004_HL9 (antibody, human IgG1, kappa, L234A L235A)
heavy: B2 heavy with F104A, N107G
light: B2 light
B4: AB_IL13_TSLP_BsAb_ISTF_003 (bispecific antibody)
chain 1: EVQLVQSGAEVKKPGSSVKVSCKASGYTFSNYLIEWVRQAPGQGLEWIGVIDPGVGDTNYNENFKGRATLTADKSTSTAYIELSSLRSEDTAVYYCAREDNPGTAFDYWGQGTTVTVSSASTKGPSVFPLAPSSKSTSGGTAALGCLVKDYFPEPVTVSWNSGALTSGVHTFPAVLQSSGLYSLSSVVTVPSSSLGTQTYICNVNHKPSNTKVDKRVEPKSCDKTHTCPPCPAPEAAGGPSVFLFPPKPKDTLMISRTPEVTCVVVDVSHEDPEVKFNWYVDGVEVHNAKTKPREEQYNSTYRVVSVLTVLHQDWLNGKEYKCKVSNKALPAPIEKTISKAKGQPREPQVYTLPPCREEMTKNQVSLWCLVKGFYPSDIAVEWESNGQPENNYKTTPPVLDSDGSFFLYSKLTVDKSRWQQGNVFSCSVLHEALHSHYTQKSLSLSPGK
chain 2: SIVMTQTPLSLSVTPGQPASISCKASQSVSSDVTWYLQKPGQSPQLLIYYVSEHYTGVPDRFSGSGYGTDFTLKISRVEAEDVGVYYCQQHHRFPLTFGQGTKLEIKRTVAAPSVFIFPPSDEQLKSGTASVVCLLNNFYPREAKVQWKVDNALQSGNSQESVTEQDSKDSTYSLSSTLTLSKADYEKHKVYACEVTHQGLSSPVTKSFNRGEC
chain 3: DIQLTQSPSSLSASVGDRVTITCRASKSVDSYGNSFMHWYQQKPGKAPKLLIYLASNLESGVPSRFSGSGSGTDFTLTISSLQPEDFATYYCQQNNEDPRTFGCGTKVEIKGGGGSGGGGSGGGGSGGGGSEVQLQESGPGLVKPSETLSLTCTVSGFSLNAYSVNWIRQPPGKCLEWLGMIWGDGKIVYNSALKSRLTISKDSSKNQVSLKLSSVTAADTAVYYCAGDGYYPYAMRNWGQGTTVTVSSEPKSSDKTHTCPPCPAPEAAGGPSVFLFPPKPKDTLMISRTPEVTCVVVDVSHEDPEVKFNWYVDGVEVHNAKTKPREEQYNSTYRVVSVLTVLHQDWLNGKEYKCKVSNKALPAPIEKTISKAKGQPREPQVCTLPPSREEMTKNQVSLSCAVKGFYPSDIAVEWESNGQPENNYKTTPPVLDSDGSFFLVSKLTVDKSRWQQGNVFSCSVLHEALHSHYTQKSLSLSPGK
B5: AB_IL13_TSLP_BsAb_ISTF_003_HL9 (bispecific antibody, human IgG1, kappa, L234A L235A)
heavy: B4 chain 1 with Q313R, H435K, S436F
light: B4 chain 2
scFv: B4 chain 3 with Q345R, H467K, S468F
notes: Anti-TSLP Fab arm (HC + LC) and anti-IL13 scFv-Fc arm
B6: AB_IL15_AI_02_077_HL9 (antibody, human IgG1, kappa, L234A L235A)
heavy: EVQLVESGGGLVQPGGSLRLSCAASEFTFSNYAMSWVRQAPGKGLEWVATISRGGDYHYYPDSVKGRFTISRDNSKNTLYLQMNSLRAEDTAVYYCARRVSMITGGWAHDYWGQGTLVTVSSASTKGPSVFPLAPSSKSTSGGTAALGCLVKDYFPEPVTVSWNSGALTSGVHTFPAVLQSSGLYSLSSVVTVPSSSLGTQTYICNVNHKPSNTKVDKRVEPKSCDKTHTCPPCPAPEAAGGPSVFLFPPKPKDTLMISRTPEVTCVVVDVSHEDPEVKFNWYVDGVEVHNAKTKPREEQYNSTYRVVSVLTVLHRDWLNGKEYKCKVSNKALPAPIEKTISKAKGQPREPQVYTLPPSREEMTKNQVSLTCLVKGFYPSDIAVEWESNGQPENNYKTTPPVLDSDGSFFLYSKLTVDKSRWQQGNVFSCSVLHEALKFHYTQKSLSLSPGK
light: DVVMTQSPLSLPVTLGQPASISCRSSQSIVDITGNTYLEWYQQRPGQSPRLLIYKVFNRFSGVPDRFSGSGSGTDFTLKISRVEAEDVGVYYCFQDSFVPYTFGQGTKLEIKRTVAAPSVFIFPPSDEQLKSGTASVVCLLNNFYPREAKVQWKVDNALQSGNSQESVTEQDSKDSTYSLSSTLTLSKADYEKHKVYACEVTHQGLSSPVTKSFNRGEC
notes: Anti-IL15 antibody with Q311R, M428L, H433K, N434F
B7: AB_TL1A_02_004_HL9 (antibody, human IgG1, kappa)
heavy: B1 heavy with Q318R, M435L, H440K, N441F
light: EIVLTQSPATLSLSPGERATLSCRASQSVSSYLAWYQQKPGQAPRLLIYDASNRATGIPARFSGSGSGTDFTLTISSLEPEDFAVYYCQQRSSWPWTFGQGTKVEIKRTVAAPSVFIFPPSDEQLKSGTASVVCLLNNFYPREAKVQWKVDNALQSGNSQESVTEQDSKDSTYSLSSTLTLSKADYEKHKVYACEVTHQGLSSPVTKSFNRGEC
notes: built from the name and the HLE mutation column
B8: RVT-3101 (antibody, human IgG1, kappa)
heavy: B1 heavy with P53T, Q62R, K63M
light: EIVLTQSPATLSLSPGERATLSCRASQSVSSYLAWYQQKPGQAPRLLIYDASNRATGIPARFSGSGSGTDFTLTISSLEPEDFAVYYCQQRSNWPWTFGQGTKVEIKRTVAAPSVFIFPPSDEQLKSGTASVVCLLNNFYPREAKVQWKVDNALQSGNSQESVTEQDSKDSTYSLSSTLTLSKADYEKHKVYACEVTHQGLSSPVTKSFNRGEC
notes: Comparator anti-TL1A antibody, no HLE mutation; also called RVT-3101 (Roche); anti-TL1A comparator antibody
B9: AB_TL1A_02_004_HL1 (antibody, human IgG1, kappa)
heavy: B1 heavy with M259Y, S261T, T263E
light: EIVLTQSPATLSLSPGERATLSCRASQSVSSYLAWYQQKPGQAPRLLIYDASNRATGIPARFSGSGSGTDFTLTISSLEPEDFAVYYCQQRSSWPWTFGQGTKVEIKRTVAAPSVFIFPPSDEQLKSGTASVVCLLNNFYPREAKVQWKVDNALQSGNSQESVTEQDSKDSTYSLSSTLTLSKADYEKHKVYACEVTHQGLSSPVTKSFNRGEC
B10: AB_IL1b_02_003_HL9 (antibody, human IgG4 S228P, kappa, F234A L235A)
heavy: EVQLVESGGGLVQPGGSLRLSCAASGFTFSDHYMSWIRQAPGKGLEWVSYISSSGSTIYYADSVKGRFTISRDNAKNSLYLQMNSLRAEDTAVYYCAREYDSSGYYYVGVDFWGQGTLVTVSSASTKGPSVFPLAPCSRSTSESTAALGCLVKDYFPEPVTVSWNSGALTSGVHTFPAVLQSSGLYSLSSVVTVPSSSLGTKTYTCNVDHKPSNTKVDKRVESKYGPPCPPCPAPEAAGGPSVFLFPPKPKDTLMISRTPEVTCVVVDVSQEDPEVQFNWYVDGVEVHNAKTKPREEQFNSTYRVVSVLTVLHRDWLNGKEYKCKVSNKGLPSSIEKTISKAKGQPREPQVYTLPPSQEEMTKNQVSLTCLVKGFYPSDIAVEWESNGQPENNYKTTPPVLDSDGSFFLYSRLTVDKSRWQEGNVFSCSVLHEALKFHYTQKSLSLSLG
light: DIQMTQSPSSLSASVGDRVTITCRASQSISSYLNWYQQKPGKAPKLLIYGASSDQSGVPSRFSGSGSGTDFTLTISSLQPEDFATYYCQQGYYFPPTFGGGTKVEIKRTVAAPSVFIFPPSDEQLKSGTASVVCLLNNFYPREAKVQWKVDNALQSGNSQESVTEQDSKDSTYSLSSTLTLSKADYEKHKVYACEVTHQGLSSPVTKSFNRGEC
notes: Anti-IL1β antibody with Q311R, M428L, H433K, N434F
B11: AB_TL1A_02_004 with a C-terminal fused assay tag (prokaryotic in vitro translation, BLI of Example 1) (antibody, human IgG1, kappa)
heavy: B1 heavy
light: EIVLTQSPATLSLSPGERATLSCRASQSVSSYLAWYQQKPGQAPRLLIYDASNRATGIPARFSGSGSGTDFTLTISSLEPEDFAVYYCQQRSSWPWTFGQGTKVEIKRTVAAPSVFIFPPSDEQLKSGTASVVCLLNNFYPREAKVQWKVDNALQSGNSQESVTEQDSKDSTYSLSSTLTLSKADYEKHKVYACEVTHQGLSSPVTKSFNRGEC
B12: AB_TL1A_02_004_HL3 (antibody, human IgG1, kappa)
heavy: B1 heavy with Q318R, M435L
light: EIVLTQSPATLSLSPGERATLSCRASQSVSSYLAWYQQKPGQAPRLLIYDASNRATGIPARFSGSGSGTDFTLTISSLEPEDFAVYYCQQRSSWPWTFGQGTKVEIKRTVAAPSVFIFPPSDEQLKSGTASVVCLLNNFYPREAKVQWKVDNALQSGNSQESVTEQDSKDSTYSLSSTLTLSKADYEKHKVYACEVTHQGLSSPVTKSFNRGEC
notes: as for B7
B13: AB_TL1A_02_004_HL4 (antibody, human IgG1, kappa)
heavy: B1 heavy with H440K, N441F
light: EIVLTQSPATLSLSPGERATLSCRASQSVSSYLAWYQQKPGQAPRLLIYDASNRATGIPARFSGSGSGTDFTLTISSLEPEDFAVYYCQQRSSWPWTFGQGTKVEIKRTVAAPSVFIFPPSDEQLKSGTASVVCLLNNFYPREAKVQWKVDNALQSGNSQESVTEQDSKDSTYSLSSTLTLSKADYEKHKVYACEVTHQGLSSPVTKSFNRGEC
notes: as for B7

For the first assay, the target named is T1, TL1A (antigen of Examples 1 and 2, …). Nature of the assay: SPR, Biacore 8K, Protein A chip, antibody captured, antigen as analyte. For orientation: SPR reads the build-up and loss of mass on a sensor chip optically.
Experimental: (§1) To perform SPR analysis using the Biacore 8K and Protein A Chip, the chip was equilibrated with Running Buffer (1×HBS-EP+). A solution of the capture ligand (0.35 μg/mL antibody) was prepared in Running Buffer and injected over the chip surface at a flow rate of 10 μL/min for 30 sec until a stable capture level of about 210-470 RU was achieved, followed by washing to remove excess ligand. For sample analysis, analyte samples were prepared in Running Buffer and injected over the chip surface at a flow rate of 30 μL/min for association (180 seconds) and dissociation (3600 seconds). The chip surface was regenerated between sample injections using a regeneration buffer such as 10 mM Gly-HCl, pH 1.5 at a flow rate of 30 μL/min. Sensorgram data was analyzed to determine binding kinetics and affinity, and the steps were repeated for additional samples as needed. The chip was thoroughly washed and regenerated after the experiment, and stored according to manufacturer's recommendations. The data was analyzed using Biacore evaluation software to calculate kinetic parameters for observed interactions.
Consider B1, for which the Kd is less than 0.0256 nM.

In the next assay the target is T3, human FcRn (human, UniProt P55899 24-297; P61769 21-119).
T3 construct: also called neonatal Fc receptor
T3 sequence (P55899 24-297 limits assumed, chain 1 of 2): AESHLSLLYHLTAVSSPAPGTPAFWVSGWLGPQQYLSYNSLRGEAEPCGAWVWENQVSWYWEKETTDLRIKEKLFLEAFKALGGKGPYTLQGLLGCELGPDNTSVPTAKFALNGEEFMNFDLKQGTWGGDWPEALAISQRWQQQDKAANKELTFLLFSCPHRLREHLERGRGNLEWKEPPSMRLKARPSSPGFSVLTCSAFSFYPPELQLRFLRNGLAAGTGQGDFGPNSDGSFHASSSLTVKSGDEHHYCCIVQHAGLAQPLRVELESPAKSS
T3 sequence (P61769 21-119 limits assumed, chain 2 of 2): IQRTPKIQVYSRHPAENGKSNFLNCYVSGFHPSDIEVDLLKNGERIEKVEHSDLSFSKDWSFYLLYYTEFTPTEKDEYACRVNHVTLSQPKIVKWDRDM
Nature of the assay: SPR, Biacore 8K, CM5 chip, antibody immobilised, human FcRn as analyte, pH 6.0.
Experimental: (§2) The 1×PBST running buffer was prepared at both pH 6.0 and pH 7.4. Kinetic measurements were obtained for association and dissociation times of 60 and 90 seconds, respectively, at a flow rate of 30 μL/min. The CM5 chips were regenerated with 1×PBS (pH 7.4). Kinetic parameters for the concentration series at both pHs were fit to a steady state affinity model and averaged using the Biacore Evaluation Software. Each concentration series was fit independently to obtain the average rates and binding affinities.
SPR analysis was performed using a Bioacore 8K instrument and a CM5 with the antibody immobilized at 10 g/mL concentration, as above.
With B2, the “Fold Increase (FI) relative to Rituximab” value was 47.5 fold and the Kd was found to be 44.8 nM.

On to B3, for which the “Fold Increase (FI) relative to Rituximab” value amounted to 45.9 fold and the Kd was determined as 46.4 nM.

Regarding B4, the “Fold Increase (FI) relative to Rituximab” value is 20.7 fold and the affinity, expressed as Kd, was 103 nM.

Turning to B5, the “Fold Increase (FI) relative to Rituximab” value was 48.5 fold and the Kd is 43.9 nM.

Turning to B6, the “Fold Increase (FI) relative to Rituximab” value was 38.1 fold and binding was put at a Kd of 55.9 nM.

B1: the Kd was 2430 nM and 2240 nM.

Take B7: the Kd was 36 nM and 43.3 nM.

As to B8, the “Fold Increase (FI) relative to Rituximab” value turned out to be 0.9 fold; the Kd was 2440 nM and 2450 nM and 2460 nM.

B9: the “Fold Increase (FI) relative to Rituximab” value was 9.8 fold and the affinity, expressed as Kd, was 218 nM.

Take B10: the “Fold Increase (FI) relative to Rituximab” value came to 50.4 fold and binding was characterised by a dissociation constant (Kd) of 42.3 nM.

Another assay concerns the target T2, biotinylated recombinant human TL1A. The experiment in a line: competition ELISA, blocks biotinylated human TL1A (3.5 nM) binding to coated DR3/Fc. A general note: In an ELISA, binding on a coated surface is turned into a signal by an enzyme label.
Experimental: (§3) Plates were coated with 4 g/mL of DR3/Fc or 1 g/mL of DcR3/Fc by adding 100 μL per well, and were incubated overnight at 4° C. 1×PBST was added at 200 μL per well, and after a 10-second incubation, the liquid was poured out and the plate was pat dried on blotting paper. This process was repeated three times. The plates were then blocked with 2% BSA in 1×PBST at 200 μL per well for 2 hours at room temperature (RT), followed by a similar washing step. […] This mixture was then added to the DR3/Fc or DcR3/Fc coated wells and incubated at RT for 1 hour. Further washing steps were performed, followed by the addition of a secondary antibody at 100 μL per well, which was incubated at RT for 0.5 hours. Additional washing steps were conducted, and TMB was added to each well at 100 μL and incubated at RT for 15 minutes. The reaction was stopped with 100 μL of 2M HCl stop solution per well, and the plates were read with a microplate reader at 450 nm. For buffer preparation, coating buffer consisted of 1×PBS, washing buffer was 0.05% tween-20 in 1×PBS, blocking buffer was 1% BSA in 1×PBST, and both test antibody dilution buffer and secondary antibody dilution buffer were prepared using blocking buffer.
Turning to B1, the IC50 was in the range of 0.92 to 1.01 nM.

The target of another assay is T1, TL1A (antigen of Examples 1 and 2, …). Nature of the assay: SPR, Biacore 8K, Protein A chip, antibody captured, antigen as analyte (second line).
Experimental: as §1
B1 had a Kd of less than 0.0469 nM.

The next assay concerns the target T2, biotinylated recombinant human TL1A. The experiment in a line: competition ELISA, blocks biotinylated human TL1A (3.5 nM) binding to coated DcR3/Fc.
Experimental: as §3
Consider B1, for which the IC50 lay within 1.2 to 1.51 nM.

A further assay deals with T1, TL1A (antigen of Examples 1 and 2, …). The experiment in a line: BLI (Gator Bio), tagged antibody on Strep-Tactin XT probes, recombinant purified antigen as analyte, 25 C.
Experimental: Materials utilized in the assay included K Buffer (Assay Buffer) containing 0.02% BSA and 0.002% Tween-20 in PBS, pH 7.4, sourced from Gator Bio, Regen Buffer comprising 10 mM Glycine, pH 1.7, from Gator Bio, and Strep-Tactin XT probes. The protocol involved preparing samples of interest by diluting them in Assay Buffer, then performing analyte dilution series by diluting recombinant purified antigen into assay buffer to the correct target concentration. Samples were loaded into a sample plate and positioned in the plate positions on the BLI device. The assay was conducted in a temperature-controlled environment at 25° C. with shaking conditions set to 1000 rpm, recording data at a frequency of 5 Hz. Protocol cycles included Initial Baseline, Sample Loading, Baseline, Second Baseline, Association, and Dissociation steps. Probes were regenerated after each cycle following a recommended protocol of regeneration and neutralization. This cycle was repeated for every subsequent analyte concentration, typically ranging from 4 to 6 concentrations.
As to B11, the Kd was 5.17 nM and 5 nM; the on-rate (kon) was 380000 M⁻¹ s⁻¹.

The next assay addresses T3, human FcRn. Nature of the assay: SPR, Biacore 8K, CM5 chip, antibody immobilised, human FcRn as analyte, pH 6.0, steady-state affinity fit.
Experimental: as §2
With B1, the Kd is 2430 nM and 2240 nM.

For the molecule B7, the Kd is 36 nM and 43.3 nM.

For B12, the “Fold Increase (FI) relative to RVT-3101” value turned out to be 5.3 fold and the Kd is 461 nM.

Take B8: the “Fold Increase (FI) relative to RVT-3101” value was found to be 1 fold; the Kd was 2440 nM and 2450 nM and 2460 nM.

As for B13, the “Fold Increase (FI) relative to RVT-3101” value was determined as 18.5 fold and the affinity, expressed as Kd, was 132 nM.

By Kd is commonly meant the constant that tells how readily two partners part at equilibrium. As usually defined, the IC50 is the concentration that inhibits the measured activity by half. The kon is the second-order rate constant of association.
